The target of experiment [1] is T1, CCK1R (Homo sapiens, UniProt P32238).
T1 sequence (P32238 1-428): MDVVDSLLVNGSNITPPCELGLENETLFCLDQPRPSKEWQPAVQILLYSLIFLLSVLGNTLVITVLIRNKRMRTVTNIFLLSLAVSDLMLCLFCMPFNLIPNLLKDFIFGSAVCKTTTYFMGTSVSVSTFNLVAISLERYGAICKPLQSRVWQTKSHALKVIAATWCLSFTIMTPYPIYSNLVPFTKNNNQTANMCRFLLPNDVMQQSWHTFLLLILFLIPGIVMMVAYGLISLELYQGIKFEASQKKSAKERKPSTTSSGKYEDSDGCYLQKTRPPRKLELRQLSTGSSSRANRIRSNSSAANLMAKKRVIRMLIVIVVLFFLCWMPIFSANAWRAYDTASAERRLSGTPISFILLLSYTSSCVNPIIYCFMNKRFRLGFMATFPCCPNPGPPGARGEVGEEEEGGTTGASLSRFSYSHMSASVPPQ
Nature of the experiment: Intracellular calcium assay (Fura-8-AM) in CHO-CCK1R cells. On the set-up: expressed in transfected cells. Type of experiment: cell-based. The note with it: CHO-CCK1R cells, agonist alone; mean ± SEM. As to the method:
Biological activity was quantified in the CHO cell lines described above using intracellular calcium assays that were performed, as previously described, using Fura-8-AM (AAT Bioquest, Pleasonton, CA, USA). Full agonist dose–response curves were performed along with determination of maximal responses to 0.1 mM ATP, targeting an endogenous receptor present on the parental cells. Concentration–response curves of peak intracellular calcium responses were analyzed and plotted as percentages of maximal responses using non-linear regression analysis in Prism 9.1 (GraphPad).

Experiment [2] has as its target T2, type 1 cholecystokinin receptor (CCK1R) (UniProt P32238).
T2 sequence: T1 sequence (P32238 1-428)

Non-standard residues stand in square brackets, D forms with d. Residues, ends and D or L forms follow the SMILES beside them. *: point of attachment. sY = N[C@@H](Cc1ccc(OS(=O)(=O)O)cc1)C(=O)O; OCH2CH2Ph = c1ccc(CCO*)cc1; Nle = CCCC[C@H](N)C(=O)O

Consider three molecules from article PMC9964746, “Mechanism of Action and Structure–Activity Relationships of Tetracyclic Small Molecules Acting as Universal Positive Allosteric Modulators of the Cholecystokinin Receptor” (Membranes, 2023).

On to `CCCC[C@H](NC(=O)[C@H](Cc1ccc(OS(=O)(=O)O)cc1)NC(=O)[C@H](CC(=O)O)NC(=O)CNC(=O)[C@H](N)Cc1ccc(O)cc1)C(=O)NCC(=O)N[C@@H](Cc1c[nH]c2ccccc12)C(=O)N[C@@H](CCCC)C(=O)N[C@@H](CC(=O)O)C(=O)OCCc1ccccc1` [CCK-OPE, D-Tyr-Gly-[(Nle^28,31)CCK-26-32]-phenethyl ester, reference compound] (H-[dY]GD[sY][Nle]GW[Nle]D-OCH2CH2Ph; N-terminus assumed), for which the “pEC50 agonist-induced intracellular calcium response” value in experiment [1] was 7.3 ± 0.2.
Turning to “D-Tyr-Gly-[(Nle^28,31)CCK-26-32]-phenethyl ester (peptide)”, in experiment [2], the pEC50 of intracellular calcium response (Fura-8-AM), CHO-CCK1R cells worked out at 7.3; the pEC50 of intracellular calcium response (Fura-8-AM), CHO-CCK1R cells, with 10 µM hit 1 stood at 8; the pEC50 of intracellular calcium response (Fura-8-AM), CHO-CCK1R cells, with 10 µM hit 6 stood at 8.1.

B1: CCK-33 (peptide)
peptide: KAPSGRMSIVKNLQNLDPSHRISDRDYMGWMDF
With B1, in experiment [2], the pEC50 of intracellular calcium response (Fura-8-AM), CHO-CCK1R cells was 9.6; the pEC50 of intracellular calcium response (Fura-8-AM), CHO-CCK1R cells, with 10 µM hit 1 worked out at 10.7; the pEC50 of intracellular calcium response (Fura-8-AM), CHO-CCK1R cells, with 10 µM hit 6 worked out at 10.7.
